These results are taken from publication PMC4613500 (2015).

The data set “SPR” concerns the molecule itself. Put plainly: SPR.
Data set [1] concerns the molecule itself. Put plainly: sedimentation velocity analytical ultracentrifugation.

B1: Chordin ∆C ∆C (C-terminally tolloid-cleaved fragment, lacking vWC4) (protein)
chain: AGPEPPVLPIRSEKEPLPVRGAAGCTFGGKVYALDETWHPDLGEPFGVMRCVLCACEAPQWGRRTRGPGRVSCKNIKPECPTPACGQPRQLPGHCCQTCPQERSSSERQPSGLSFEYPRDPEHRSYSDRGEPGAEERARGDGHTDFVALLTGPRSQAVARARVSLLRSSLRFSISYRRLDRPTRIRFSDSNGSVLFEHPAAPTQDGLVCGVWRAVPRLSLRLLRAEQLHVALVTLTHPSGEVWGPLIRHRALAAETFSAILTLEGPPQQGVGGITLLTLSDTEDSLHFLLLFRGLLEPRSGGLTQVPLRLQILHQGQLLRELQANVSAQEPGFAEVLPNLTVQEMDWLVLGELQMALEWAGRPGLRISGHIAARKSCDVLQSVLCGADALIPVQTGAAGSASLTLLGNGSLIYQVQVVGTSSEVVAMTLETKPQRRDQRTVLCHMAGLQPGGHTAVGICPGLGARGAHMLLQNELFLNVGTKDFPDGELRGHVAALPYCGHSARHDTLPVPLAGALVLPPVKSQAAGHAWLSLDTHCHLHYEVLLAGLGGSEQGTVTAHLLGPPGTPGPRRLLKGFYGSEAQGVVKDLEPELLRHLAKGMASLMITTKGSPRGELRGQVHIANQCEVGGLRLEAAGAEGVRALGAPDTASAAPPVVPGLPALAPAKPGGPGRPRDPNTCFFEGQQRPHGARWAPNYDPLCSLCTCQRRTVICDPVVCPPPSCPHPVQAPDQCCPVCPEKQDVRDLPGLPRSRDPGEGCYFDGDRSWRAAGTRWHPVVPPFGLIKCAVCTCKGGTGEVHCEKVQCPRLACAQPVRVNPTDCCKQCPVGSGA
Take B1: binding in the data set “SPR” was put at a Kd of 3.15 nM.

B2: Chordin (protein)
chain: AGPEPPVLPIRSEKEPLPVRGAAGCTFGGKVYALDETWHPDLGEPFGVMRCVLCACEAPQWGRRTRGPGRVSCKNIKPECPTPACGQPRQLPGHCCQTCPQERSSSERQPSGLSFEYPRDPEHRSYSDRGEPGAEERARGDGHTDFVALLTGPRSQAVARARVSLLRSSLRFSISYRRLDRPTRIRFSDSNGSVLFEHPAAPTQDGLVCGVWRAVPRLSLRLLRAEQLHVALVTLTHPSGEVWGPLIRHRALAAETFSAILTLEGPPQQGVGGITLLTLSDTEDSLHFLLLFRGLLEPRSGGLTQVPLRLQILHQGQLLRELQANVSAQEPGFAEVLPNLTVQEMDWLVLGELQMALEWAGRPGLRISGHIAARKSCDVLQSVLCGADALIPVQTGAAGSASLTLLGNGSLIYQVQVVGTSSEVVAMTLETKPQRRDQRTVLCHMAGLQPGGHTAVGICPGLGARGAHMLLQNELFLNVGTKDFPDGELRGHVAALPYCGHSARHDTLPVPLAGALVLPPVKSQAAGHAWLSLDTHCHLHYEVLLAGLGGSEQGTVTAHLLGPPGTPGPRRLLKGFYGSEAQGVVKDLEPELLRHLAKGMASLMITTKGSPRGELRGQVHIANQCEVGGLRLEAAGAEGVRALGAPDTASAAPPVVPGLPALAPAKPGGPGRPRDPNTCFFEGQQRPHGARWAPNYDPLCSLCTCQRRTVICDPVVCPPPSCPHPVQAPDQCCPVCPEKQDVRDLPGLPRSRDPGEGCYFDGDRSWRAAGTRWHPVVPPFGLIKCAVCTCKGGTGEVHCEKVQCPRLACAQPVRVNPTDCCKQCPVGSGAHPQLGDPMQADGPRGCRFAGQWFPESQSWHPSVPPFGEMSCITCRCGAGVPHCERDDCSLPLSCGSGKESRCCSRCTAHRRPAPETRTDPELEKEAEGS
In the case of B2, the dissociation constant (Kd) was 3.05 nM in “SPR” and 3300 nM in data set [1].

One may read the Kd as a measure of binding affinity in units of concentration. High values mean lower affinity, low ones higher affinity.
